Data taken from paper PMC10540216, “Activity Guided Azide-methyllysine Photo-trapping for Substrate Profiling of Lysine Demethylases” (Journal of the American Chemical Society, 2023).

Test system: KDM4A-I71AzF
Experiment: CASI: photo-crosslinking with HEK293T cell extracts, StrepTactin enrichment and LC-MS/MS proteomics;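 note: lysates from HEK293T cells pretreated with a KDM4 inhibitor to raise proteome methylation, affinity-purified after ±UV, gel-resolved, trypsin-digested, with exclusive unique peptides per protein averaged per condition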
Type: binding, human
Settings: sheet "Final results but with 0.01"

Row | Molecule | Fold change (+UV/-UV)
1 | LYSC_HUMAN (protein, UniProt P61626 19-148, looked up) Lysozyme C: KVFERCELARTLKRLGMDGYRGISLANWMCLAKWESGYNTRATNYNAGDRSTDYGIFQINSRYWCNDGKTPGAVNACHLSCSALLQDNIADAVACAKRVVRDPQGIRAWVAWRNRCQNRDVRQYVQGCGV | 200
2 | RAD50_HUMAN (protein, UniProt Q92878 1-1312, looked up) DNA repair protein RAD50: MSRIEKMSILGVRSFGIEDKDKQIITFFSPLTILVGPNGAGKTTIIECLKYICTGDFPPGTKGNTFVHDPKVAQETDVRAQIRLQFRDVNGELIAVQRSMVCTQKSKKTEFKTLEGVITRTKHGEKVSLSSKCAEIDREMISSLGVSKAVLNNVIFCHQEDSNWPLSEGKALKQKFDEIFSATRYIKALETLRQVRQTQGQKVKEYQMELKYLKQYKEKACEIRDQITSKEAQLTSSKEIVKSYENELDPLKNRLKEIEHNLSKIMKLDNEIKALDSRKKQMEKDNSELEEKMEKVFQGTDEQLNDLYHNHQRTVREKERKLVDCHRELEKLNKESRLLNQEKSELLVEQGRLQLQADRHQEHIRARDSLIQSLATQLELDGFERGPFSERQIKNFHKLVRERQEGEAKTANQLMNDFAEKETLKQKQIDEIRDKKTGLGRIIELKSEILSKKQNELKNVKYELQQLEGSSDRILELDQELIKAERELSKAEKNSNVETLKMEVISLQNEKADLDRTLRKLDQEMEQLNHHTTTRTQMEMLTKDKADKDEQIRKIKSRHSDELTSLLGYFPNKKQLEDWLHSKSKEINQTRDRLAKLNKELASSEQNKNHINNELKRKEEQLSSYEDKLFDVCGSQDFESDLDRLKEEIEKSSKQRAMLAGATAVYSQFITQLTDENQSCCPVCQRVFQTEAELQEVISDLQSKLRLAPDKLKSTESELKKKEKRRDEMLGLVPMRQSIIDLKEKEIPELRNKLQNVNRDIQRLKNDIEEQETLLGTIMPEEESAKVCLTDVTIMERFQMELKDVERKIAQQAAKLQGIDLDRTVQQVNQEKQEKQHKLDTVSSKIELNRKLIQDQQEQIQHLKSTTNELKSEKLQISTNLQRRQQLEEQTVELSTEVQSLYREIKDAKEQVSPLETTLEKFQQEKEELINKKNTSNKIAQDKLNDIKEKVKNIHGYMKDIENYIQDGKDDYKKQKETELNKVIAQLSECEKHKEKINEDMRLMRQDIDTQKIQERWLQDNLTLRKRNEELKEVEEERKQHLKEMGQMQVLQMKSEHQKLEENIDNIKRNHNLALGRQKGYEEEIIHFKKELREPQFRDAEEKYREMMIVMRTTELVNKDLDIYYKTLDQAIMKFHSMKMEEINKIIRDLWRSTYRGQDIEYIEIRSDADENVSASDKRRNYNYRVVMLKGDTALDMRGRCSAGQKVLASLIIRLALAETFCLNCGIIALDEPTTNLDRENIESLAHALVEIIKSRSQQRNFQLLVITHDEDFVELLGRSEYVEKFYRIKKNIDQCSEIVKCSVSSLGFNVH | 200
3 | TCPQ_HUMAN (protein, UniProt P50990 2-548, looked up) T-complex protein 1 subunit …: ALHVPKAPGFAQMLKEGAKHFSGLEEAVYRNIQACKELAQTTRTAYGPNGMNKMVINHLEKLFVTNDAATILRELEVQHPAAKMIVMASHMQEQEVGDGTNFVLVFAGALLELAEELLRIGLSVSEVIEGYEIACRKAHEILPNLVCCSAKNLRDIDEVSSLLRTSIMSKQYGNEVFLAKLIAQACVSIFPDSGHFNVDNIRVCKILGSGISSSSVLHGMVFKKETEGDVTSVKDAKIAVYSCPFDGMITETKGTVLIKTAEELMNFSKGEENLMDAQVKAIADTGANVVVTGGKVADMALHYANKYNIMLVRLNSKWDLRRLCKTVGATALPRLTPPVLEEMGHCDSVYLSEVGDTQVVVFKHEKEDGAISTIVLRGSTDNLMDDIERAVDDGVNTFKVLTRDKRLVPGGGATEIELAKQITSYGETCPGLEQYAIKKFAEAFEAIPRALAENSGVKANEVISKLYAVHQEGNKNVGLDIEAEVPAVKDMLEAGILDTYLGKYWAIKLATNAAVTVLRVDQIIMAKPAGGPKPPSGKKDWDDDQND | 1
